Format in all cases: biochemical, Azospirillum brasilense
What all share (settings): other: pH 6.8, 30° C, 2-ketoacid 0 to 4 mM, Hill equation, mean ± standard error

Substrate in series [1]: CCCCCCCC(=O)C(=O)O
The series is described as follows: HTP AbPPDC coupled enzyme assay (ADH6/NADPH), 2-ketoacid decarboxylation kinetics, F532V. The procedure:
(§1) The evaluation of the AbPPDC variants is performed in two steps using the high-throughput enzyme assay described hereinbelow. Initially, all the variants are tested for activity against a single high concentration (2 mM) of 2-KH and 2-KN (as shown in Table 1). Following the initial evaluation, detailed kinetic analysis is performed on a select number of variants to determine the maximal rate (kcat), substrate concentration yielding half maximal rate (K0.5, equivalent of KM for enzymes following Michaelis-Menten kinetics), and the catalytic efficiency of the enzyme (kcat/K0.5) against 2-KO and 2-KN (as shown in Table 2). AbPPDC variants, having higher specificity (higher kcat/K0.5) for 2-KN, will be efficient in producing octanal and chemicals derived from it inside the cells.
(§2) To evaluate the substrate specificity of the wild type AbPPDC and its variants listed in Table 1, genes of all the proteins are expressed in E. coli cells separately and the protein products are isolated from the cells. The gene sequence of the Azospirillum brasilense phenylpyruvate decarboxylase (GenBank: Accession no. L26240) is downloaded from the NCBI database. Codons of 13 additional amino acids that include six (6) histidines (his) are added upstream of the Met-1 codon of the AbPPDC gene sequence. Such a modification allows expression of a Histidine-tagged AbPPDC having 13 additional amino acids on the N-terminus. The additional amino acids are attached as an aid for purifying the protein in a single step using Ni-NTA chromatography. The entire AbPPDC sequence with 13 additional amino acids (SEQ ID 2) is chemically synthesized and then cloned into the pRSFDuet-1 vector (EMD Biosciences) downstream of the T7 polymerase promoter by Synthetic Genomics, Inc. (San Diego, Calif.). The final vector is sequenced by Synthetic Genomics, Inc. before shipping.
(§3) Genes of the AbPPDC variants listed in Table 1 are either chemically synthesized or generated using New England Biolab's Q5 Site-directed Mutagenesis Kit (cat. no. E0554S) and cloned into the pRSFDuet-1 vector. The pRSFDuet-1 vector containing AbPPDC or the AbPPDC variant gene is transformed into E. coli, AbPPDC or its variant, then expressed and eventually purified, as described below.
(§4) A high-throughput AbPPDC coupled enzyme assay is developed for evaluating the substrate specificity of AbPPDC variants. The assay involves reducing the aldehyde produced from AbPPDC mediated 2-ketoacid decarboxylation, using an alcohol dehydrogenase (ADH6, GenBank: Accession No. NP 014051.3). The initial velocities of the AbPPDC catalyzed reactions are determined from the rates of oxidation of reduced nicotinamide adenine dinucleotide phosphate (NADPH) occurring during the ADH6 catalyzed reduction of aldehyde.
(§5) The HTP screening assay involves incubating 2 mM 2-KH or 2 mM 2-KN with 0.5 mM thiamine diphosphate, 0.35 mM NADPH, 4.7 micrograms (μg) of yeast ADH6 (GenBank: Accession No. NP 014051.3) and 0.3 milligrams per milliliter (mg/mL) bovine serum albumin (BSA) in AbPPDC assay buffer (50 mM 3-(N-morpholino)propanesulfonic acid, pH 6.8, containing 2.5 mM magnesium chloride (MgCl2)) at 30° C. The reaction is started by addition at 30° C. of working enzyme stock containing from 0.5 μg to 3.5 μg of AbPPDC variant diluted in AbPPDC assay buffer containing 1 mg/mL BSA. The plate containing the 200 μL of reaction mixture is centrifuged at 2500×g for 15 sec and the absorbance change of the reaction mixture followed spectrophotometrically at 340 nm on a BioTek™ plate reader, pre-equilibrated at 30° C. Initial velocity of the enzyme reaction is calculated using the rate of NADPH consumption at 340 nm and the extinction coefficient of NADPH (6.22 mM^−1 cm^−1). The activity of all the variants is normalized with the amount of enzyme present in the reaction mixture and expressed as nanomoles per minute per milligram (nmol·min^−1·mg^−1). […]

Substrate in series [2]: CCCCCCC(=O)C(=O)O
The description is as above. Here is the method: as §1, §2, §3, §4, §5

Substrate in series [3]: CCCCCCCC(=O)C(=O)O
The series is described as follows: HTP AbPPDC coupled enzyme assay (ADH6/NADPH), 2-ketoacid decarboxylation kinetics, Q536G. The procedure:
as §1, §2, §3, §4, §5

Substrate in series [4]: CCCCCCC(=O)C(=O)O
The series is described as above. Here is the method:
as §1, §2, §3, §4, §5

Substrate in series [5]: CCCCCCCC(=O)C(=O)O
As to the kind of experiment: HTP AbPPDC coupled enzyme assay (ADH6/NADPH), 2-ketoacid decarboxylation kinetics, F532L. The procedure:
as §1, §2, §3, §4, §5

Substrate in series [6]: CCCCCCC(=O)C(=O)O
Described as above. Here is the method:
as §1, §2, §3, §4, §5

In general, kcat refers to the number of substrate molecules converted per active site and unit of time at saturation. The term kcat/Km denotes the turnover number divided by the Michaelis constant.

B1: Azospirillum brasilense phenylpyruvate decarboxylase (AbPPDC) variant F532V, SEQ ID 28 (Azospirillum brasilense; F532V) (protein)
chain: MKLAEALLRALKDRGAQAMFGIPGDFALPFFKVAEETQILPLHTLSHEPAVGFAADAAARYSSTLGVAAVTYGAGAFNMVNAVAGAYAEKSPVVVISGAPGTTEGNAGLLLHHQGRTLDTQFQVFKEITVAQARLDDPAKAPAEIARVLGAARALSRPVYLEIPRNMVNAEVEPVGDDPAWPVDRDALAACADEVLAAMRSATSPVLMVCVEVRRYGLEAKVAELAQRLGVPVVTTFMGRGLLADAPTPPLGTYIGVAGDAEITRLVEESDGLFLLGAILSDTNFAVSQRKIDLRKTIHAFDRAVTLGYHTYADIPLAGLVDALLEGLPPSDRTTRGKEPHAYPTGLQADGEPIAPMDIARAVNDRVRAGQEPLLIAADMGDCLFTAMDMIDAGLMAPGYYAGMGFGVPAGIGAQCVSGGKRILTVVGDGAFQMTGWELGNCRRLGIDPIVILFNNASWEMLRTFQPESAFNDLDDWRFADMAAGMGGDGVRVRTRAELKAALDKAFATRGRFQLIEAMIPRGVLSDTLARVVQGQKRLHAAPRE
notes: made in house; host or cells: E. coli BL21(DE3)
As for B1, in series [1], the K0.5 amounted to 0.89 ± 0.15 mM, the catalytic constant (kcat) stood at 0.383 ± 0.033 s⁻¹ and the kcat/Km came out at 450 ± 83 M⁻¹ s⁻¹. In addition, in series [2], the K0.5 is on record as 2.0 ± 0.1 mM, the kcat turned out to be 0.163 ± 0.0033 s⁻¹ and the kcat/Km came out at 80 ± 3.3 M⁻¹ s⁻¹.

B2: Azospirillum brasilense phenylpyruvate decarboxylase (AbPPDC) variant Q536G, SEQ ID 32 (Azospirillum brasilense; Q536G) (protein)
chain: MKLAEALLRALKDRGAQAMFGIPGDFALPFFKVAEETQILPLHTLSHEPAVGFAADAAARYSSTLGVAAVTYGAGAFNMVNAVAGAYAEKSPVVVISGAPGTTEGNAGLLLHHQGRTLDTQFQVFKEITVAQARLDDPAKAPAEIARVLGAARALSRPVYLEIPRNMVNAEVEPVGDDPAWPVDRDALAACADEVLAAMRSATSPVLMVCVEVRRYGLEAKVAELAQRLGVPVVTTFMGRGLLADAPTPPLGTYIGVAGDAEITRLVEESDGLFLLGAILSDTNFAVSQRKIDLRKTIHAFDRAVTLGYHTYADIPLAGLVDALLEGLPPSDRTTRGKEPHAYPTGLQADGEPIAPMDIARAVNDRVRAGQEPLLIAADMGDCLFTAMDMIDAGLMAPGYYAGMGFGVPAGIGAQCVSGGKRILTVVGDGAFQMTGWELGNCRRLGIDPIVILFNNASWEMLRTFQPESAFNDLDDWRFADMAAGMGGDGVRVRTRAELKAALDKAFATRGRFQLIEAMIPRGVLSDTLARFVQGGKRLHAAPRE
notes: as for B1
For B2, in series [3], the K0.5 came out at 0.76 ± 0.02 mM, the kcat was found to be 0.35 ± 0 s⁻¹ and the kcat/Km stood at 467 ± 17 M⁻¹ s⁻¹. In addition, in series [4], the K0.5 amounted to 1.9 ± 0.2 mM, the catalytic constant (kcat) came out at 0.183 ± 0.013 s⁻¹ and the kcat/Km was 96.7 ± 10 M⁻¹ s⁻¹.

B3: Azospirillum brasilense phenylpyruvate decarboxylase (AbPPDC) variant F532L, SEQ ID 30 (Azospirillum brasilense; F532L) (protein)
chain: MKLAEALLRALKDRGAQAMFGIPGDFALPFFKVAEETQILPLHTLSHEPAVGFAADAAARYSSTLGVAAVTYGAGAFNMVNAVAGAYAEKSPVVVISGAPGTTEGNAGLLLHHQGRTLDTQFQVFKEITVAQARLDDPAKAPAEIARVLGAARALSRPVYLEIPRNMVNAEVEPVGDDPAWPVDRDALAACADEVLAAMRSATSPVLMVCVEVRRYGLEAKVAELAQRLGVPVVTTFMGRGLLADAPTPPLGTYIGVAGDAEITRLVEESDGLFLLGAILSDTNFAVSQRKIDLRKTIHAFDRAVTLGYHTYADIPLAGLVDALLEGLPPSDRTTRGKEPHAYPTGLQADGEPIAPMDIARAVNDRVRAGQEPLLIAADMGDCLFTAMDMIDAGLMAPGYYAGMGFGVPAGIGAQCVSGGKRILTVVGDGAFQMTGWELGNCRRLGIDPIVILFNNASWEMLRTFQPESAFNDLDDWRFADMAAGMGGDGVRVRTRAELKAALDKAFATRGRFQLIEAMIPRGVLSDTLARLVQGQKRLHAAPRE
notes: as for B1
In the case of B3, in series [5], the K0.5 is given as 0.94 ± 0.27 mM, the kcat was found to be 0.5 ± 0.083 s⁻¹ and the kcat/Km was 583 ± 200 M⁻¹ s⁻¹. Further, in series [6], the K0.5 is listed as 1.6 ± 0.1 mM, the kcat was 0.217 ± 0.005 s⁻¹ and the kcat/Km came out at 137 ± 5 M⁻¹ s⁻¹.

The values above are taken from patent US10260060B2, “Genetically modified phenylpyruvate decarboxylase, processes to prepare, and uses thereof” (Dow Global Technologies LLC, priority 2014, dated 2019).
